The experiment concerns the target E. coli 70S ribosomes (nontranslating, salt-washed) (E. coli). Nature of the experiment: co-sedimentation.

The source of these data is publication PMC3268725.

Several values for one entry are separate records, joined by “and”; a condition that tells them apart may be missing. Identical values can stand only once.

One may read the Kd as the free concentration of one partner at which half of the binding sites on the other are occupied at equilibrium, for simple one-to-one binding.

Regarding “SecYHisEG complex, purified, in detergent (from UniProt P0AGA2;P0AG96;P0AG99)”, the Kd came to 150 nM.

B1: His-tagged YidC, purified (natural protein)
chain: MDSQRNLLVIALLFVSFMIWQAWEQDKNPQPQAQQTTQTTTTAAGSAADQGVPASGQGKLISVKTDVLDLTINTRGGDVEQALLPAYPKELNSTQPFQLLETSPQFIYQAQSGLTGRDGPDNPANGPRPLYNVEKDAYVLAEGQNELQVPMTYTDAAGNTFTKTFVLKRGDYAVNVNYNVQNAGEKPLEISSFGQLKQSITLPPHLDTGSSNFALHTFRGAAYSTPDEKYEKYKFDTIADNENLNISSKGGWVAMLQQYFATAWIPHNDGTNNFYTANLGNGIAAIGYKSQPVLVQPGQTGAMNSTLWVGPEIQDKMAAVAPHLDLTVDYGWLWFISQPLFKLLKWIHSFVGNWGFSIIIITFIVRGIMYPLTKAQYTSMAKMRMLQPKIQAMRERLGDDKQRISQEMMALYKAEKVNPLGGCFPLLIQMPIFLALYYMLMGSVELRQAPFALWIHDLSAQDPYYILPILMGVTMFFIQKMSPTTVTDPMQQKIMTFMPVIFTVFFLWFPSGLVLYYIVSNLVTIIQQQLIYRGLEKRGLHSREKKKS
As to B1, the fold lower affinity than SecY for ribosomes is 5 times lower and 10 times lower.
